Experimental data from article PMC9759335.
Read-outs that look alike come from different tables or passages of the source.

Legend:
[1] = aggregate area of transfected HeLa cells; conditions: glycan lost; control: P0wt-EGFP
[2] = EGFP fluorescence in transfected HeLa cells; conditions: glycan lost; control: P0wt-EGFP
HeLa adhesion assay = conditions: glycan changed form; control: untreated P0D61N cells
[3] = confocal EGFP imaging of HeLa cells; conditions: glycan changed form; control: untreated cells, same construct

Q: Which localisation_or_trafficking (N-glycosylation at N118) does the source give for “P0 D118N (Myelin Protein Zero mutant): D118N” here?
A: The localisation_or_trafficking was “no change”.

Q: For “P0 K138N (Myelin Protein Zero mutant): K138N”, which localisation_or_trafficking (N-glycosylation at N138) is on record?
A: The localisation_or_trafficking was “decreases”.

Q: For “P0 D61N (mouse Mpz knock-in mutant): D61N (MpzD61N/+ mice)”, which expression_or_secretion (N-glycosylation at N61) is on record?
A: Its expression_or_secretion is “no change”.

Q: Which localisation_or_trafficking (N-glycosylation at N61) does the source give for “P0 D61N (Myelin Protein Zero mutant): D61N” here?
A: The localisation_or_trafficking was “decreases”.

Q: Which localisation_or_trafficking (N-glycosylation at N109) does the source give for “P0 D109N (Myelin Protein Zero mutant): D109N” here?
A: The localisation_or_trafficking was “decreases”.

Q: For “P0 D61N (mouse Mpz knock-in mutant): D61N (MpzD61N/− mice)”, which localisation_or_trafficking (N-glycosylation at N61) is on record?
A: Its localisation_or_trafficking is “changes”.

Q: For “P0 D61N (Myelin Protein Zero mutant): 750 μM N-butyl-deoxynojirimycin (NB-DNJ) on HeLa cells expressing D61N”, which localisation_or_trafficking (N-glycosylation at N61) is on record?
A: The localisation_or_trafficking was “increases”.

B1: P0 (Myelin Protein Zero): N122S (protein)
parent chain: MAPGAPSSSPSPILAVLLFSSLVLSPAQAIVVYTDREVHGAVGSRVTLHCSFWSSEWVSDDISFTWRYQPEGGRDAISIFHYAKGQPYIDEVGTFKERIQWVGDPRWKDGSIVIHNLDYSDNGTFTCDVKNPPDIVGKTSQVTLYVFEKVPTRYGVVLGAVIGGVLGVVLLLLLLFYVVRYCWLRRQAALQRRLSAMEKGKLHKPGKDASKRGRQTPVLYAMLDHSRSTKAVSEKKAKGLGESRKDKK
Q: Which “other: homophilic cell adhesion, percent_of_wt” value [1] does the source give for B1 here?
A: Its value is “no change”.

Q: What about the localisation_or_trafficking [2] of the same molecule?
A: The localisation_or_trafficking was “no change”.

B2: P0 (Myelin Protein Zero): 750 μM NB-DNJ on P0D61N (protein)
parent chain: MAPGAPSSSPSPILAVLLFSSLVLSPAQAIVVYTDREVHGAVGSRVTLHCSFWSSEWVSDDISFTWRYQPEGGRDAISIFHYAKGQPYIDEVGTFKERIQWVGDPRWKDGSIVIHNLDYSDNGTFTCDVKNPPDIVGKTSQVTLYVFEKVPTRYGVVLGAVIGGVLGVVLLLLLLFYVVRYCWLRRQAALQRRLSAMEKGKLHKPGKDASKRGRQTPVLYAMLDHSRSTKAVSEKKAKGLGESRKDKK
Q: Which “other: homophilic cell adhesion” value (HeLa adhesion assay) does the source give for B2 here?
A: The value was “increases”.

B3: P0 (Myelin Protein Zero): T124M (protein)
parent chain: MAPGAPSSSPSPILAVLLFSSLVLSPAQAIVVYTDREVHGAVGSRVTLHCSFWSSEWVSDDISFTWRYQPEGGRDAISIFHYAKGQPYIDEVGTFKERIQWVGDPRWKDGSIVIHNLDYSDNGTFTCDVKNPPDIVGKTSQVTLYVFEKVPTRYGVVLGAVIGGVLGVVLLLLLLFYVVRYCWLRRQAALQRRLSAMEKGKLHKPGKDASKRGRQTPVLYAMLDHSRSTKAVSEKKAKGLGESRKDKK
Q: Which “other: homophilic cell adhesion, percent_of_wt” value [1] does the source give for B3 here?
A: The value was “no change”.

Q: What about the localisation_or_trafficking [2] of the same molecule?
A: Its localisation_or_trafficking is “no change”.

B4: P0 (Myelin Protein Zero): 750 μM NB-DNJ on P0wt (protein)
parent chain: MAPGAPSSSPSPILAVLLFSSLVLSPAQAIVVYTDREVHGAVGSRVTLHCSFWSSEWVSDDISFTWRYQPEGGRDAISIFHYAKGQPYIDEVGTFKERIQWVGDPRWKDGSIVIHNLDYSDNGTFTCDVKNPPDIVGKTSQVTLYVFEKVPTRYGVVLGAVIGGVLGVVLLLLLLFYVVRYCWLRRQAALQRRLSAMEKGKLHKPGKDASKRGRQTPVLYAMLDHSRSTKAVSEKKAKGLGESRKDKK
Q: Which localisation_or_trafficking [3] does the source give for B4 here?
A: Its localisation_or_trafficking is “no change”.

B5: P0 (Myelin Protein Zero): T124A (protein)
parent chain: MAPGAPSSSPSPILAVLLFSSLVLSPAQAIVVYTDREVHGAVGSRVTLHCSFWSSEWVSDDISFTWRYQPEGGRDAISIFHYAKGQPYIDEVGTFKERIQWVGDPRWKDGSIVIHNLDYSDNGTFTCDVKNPPDIVGKTSQVTLYVFEKVPTRYGVVLGAVIGGVLGVVLLLLLLFYVVRYCWLRRQAALQRRLSAMEKGKLHKPGKDASKRGRQTPVLYAMLDHSRSTKAVSEKKAKGLGESRKDKK
Q: What does the source list for B5?
A: other: homophilic cell adhesion, percent_of_wt [1]: no change; localisation_or_trafficking [2]: no change

B6: P0 (Myelin Protein Zero): T124K (protein)
parent chain: MAPGAPSSSPSPILAVLLFSSLVLSPAQAIVVYTDREVHGAVGSRVTLHCSFWSSEWVSDDISFTWRYQPEGGRDAISIFHYAKGQPYIDEVGTFKERIQWVGDPRWKDGSIVIHNLDYSDNGTFTCDVKNPPDIVGKTSQVTLYVFEKVPTRYGVVLGAVIGGVLGVVLLLLLLFYVVRYCWLRRQAALQRRLSAMEKGKLHKPGKDASKRGRQTPVLYAMLDHSRSTKAVSEKKAKGLGESRKDKK
Q: For B6, which localisation_or_trafficking [2] is on record?
A: The localisation_or_trafficking was “no change”.
